Source: paper PMC13480635

Key:
[1] = molecular target: Trypanosoma brucei gambiense variant surface glycoprotein LiTat 1.3 (Lille Trypanozoon antigen type 1.3) (Trypanosoma brucei gambiense); assay: SEC-MALS; Agilent Bio SEC-3 column, PBS; samples at 0.5 mg/mL and 5 mg/mL, 50 uL injected
[2] = molecular target: Trypanosoma brucei gambiense variant surface glycoprotein LiTat 1.3 (Lille Trypanozoon antigen type 1.3) (Trypanosoma brucei gambiense); assay: SAXS; SEC-SAXS, Shodex KW404-4F column, 20 mM HEPES, 150 mM NaCl, 3% glycerol, pH 7.4; 50 uL at 15.51 mg/mL injected; curve from the first (major) elution peak

With “Trypanosoma brucei gambiense variant surface glycoprotein LiTat 1.3 (Lille Trypanozoon antigen type 1.3) (natural protein)” the stoichiometry N [1] was 3 and the stoichiometry N [2] was 3.
